This is an account of results in PMC3461476, “Functional expression of a penicillin acylase from the extreme thermophile Thermus thermophilus HB27 in Escherichia coli” (Microbial Cell Factories, 2012).

Common to all, as to test: initial rates of hydrolysis, fluorescamine detection of primary amine product
In one series the target is T1, TthPAC (Thermus thermophilus, UniProt Q72G76, DEL247-255).
T1 construct: gene TT_C1972; One gene: precursor without its first 32 residues (membrane anchor), 2223 bp insert in pET28a, His6-tag (20 aa) at N-terminus of alpha subunit kept
Format: biochemical. The note with it: 20 mM MES pH 5.5, 65 °C; kcat unit taken from kcat/Km in mM^-1.seg^-1. An excerpt:
(§1) initial rates of hydrolysis, fluorescamine detection of primary amine product on TthPAC

Substrate in series [1]: CCCCCCCC(=O)N[C@@H]1C(=O)N2[C@@H]1SC(C)(C)[C@@H]2C(=O)O
Format: biochemical, Thermus thermophilus. The note with it: 20 mM MES pH 5.5, 65 °C, kcat unit taken from kcat/Km in mM^-1.seg^-1.
Text: as §1

Substrate in series [2]: CC1(C)S[C@@H]2[C@H](NC(=O)COc3ccccc3)C(=O)N2[C@H]1C(=O)O
Format: biochemical, Thermus thermophilus. The note with it: 20 mM MES pH 5.5, 65 °C, kcat unit taken from kcat/Km in mM^-1.seg^-1.
Text: as §1

Substrate in series [3]: CCCCCC(=O)N[C@@H]1C(=O)N2[C@@H]1SC(C)(C)[C@@H]2C(=O)O
Format: biochemical, Thermus thermophilus. The note with it: 20 mM MES pH 5.5, 65 °C, kcat unit taken from kcat/Km in mM^-1.seg^-1.
Text: as §1

Substrate in series [4]: CC/C=C/CC(=O)N[C@@H]1C(=O)N2[C@@H]1SC(C)(C)[C@@H]2C(=O)O
Format: biochemical, Thermus thermophilus. To be noted: 20 mM MES pH 5.5, 65 °C, kcat unit taken from kcat/Km in mM^-1.seg^-1.
Text: as §1

As for `CC1(C)S[C@@H]2[C@H](NC(=O)Cc3ccccc3)C(=O)N2[C@H]1C(=O)O` [Penicillin G], the “K m (mM)” value on TthPAC is “~ Approx. 2.90 mM”.

B1: TthPAC (Thermus thermophilus HB27; DEL247-255) (protein)
chain: LYLRASLPQGEGRIALEGLSAPVEVVRDGKGVVRIRAATLKDLFFAQGFVHAQERLWQMEFQRRVGQGRLSEILGEATLPQDRFLRTWGFYRAARAAYGKLYPEEKEAVDAYAAGVNAFLASGAPLPPEFRLLGFRPEPWTGPDVLVWAKMMSYDLSGNWEEELKRHRLLARGVSPKRLLELKPPYPEDAPTVLRAEDLKLPLKREEAPSALLRSNNWVVAGSRTETGKPFLANDPHLALQAPSLWFLMALEAPGLRAIGATLPGLPGVVIGRNERIAWGVTNVGADVEDLYLLEEVEGRGYRYKGRVVPYGVREEVIRVKGGREEVLKVRETVYGPVITDALEDPPKTPMALRWVSLDEEDHILMAFLGVNRAGNWEEFKKALLPYSAPSQNFVYADVEGNIGYIAPGKFPVRKEGHTGMVPVPGNGEWDWLGYRRPEEWPQAFNPARGYLVTANHKVTPKGFPYALTYDWAEPYRAERIEELLLAKEKLSLEDMKAIQQDQKSLLYRDFRPVLELLTPLSEGARAWRDRLLAWDGTMAPGSEEALVFALWYTELTRLPQREVGEAYWDEPRYLLKALKEGDKNCDQPETEYRESCLDYAALALERALDRKEALGARAWGEVHRARFPHAVLTHTPLKRLSDREVAFGGDRYTVNVGPFDPETLAMGHGPSYRQIVDLSDMEGSLFVHPMGQSGHFLSRHYADLLPLWQRGDYLPMRFGAPLGRTLLLEPLPSP
notes: One gene: precursor without its first 32 residues (membrane anchor), 2223 bp insert in pET28a, His6-tag (20 aa) at N-terminus of alpha subunit kept
With B1, the Km (as a rule, the concentration of substrate that gives half-maximal velocity) in series [1] was found to be 0.32 ± 0.05 mM; in series [2], 0.74 ± 0.11 mM; in series [3], 0.98 ± 0.22 mM; in series [4], 0.94 ± 0.18 mM. Moreover, the kcat (usually the number of substrate molecules converted per active site and unit of time at saturation) in series [1] was found to be 5.16 ± 0.13 s⁻¹; in series [2], 0.57 ± 0.01 s⁻¹; in series [3], 1.46 ± 0.06 s⁻¹; in series [4], 0.90 ± 0.03 s⁻¹. Further, the kcat/Km (as a rule, the turnover number divided by the Michaelis constant) in series [1] was determined as 16100 M⁻¹ s⁻¹; in series [2], 770 M⁻¹ s⁻¹; in series [3] it was 1490 M⁻¹ s⁻¹; in series [4], 960 M⁻¹ s⁻¹.
